Results taken from patent US20130197191A1 (Amgen, published 2013).
Read-outs that look alike come from different tables or passages of the source. One block for each binder: values may come before it.

Experiments:
Experiment in all cases: phage panning
[1] = biological target: T1, recombinant human β-Klotho (human, UniProt Q86Z14 53-996, limits assumed, biotinylated in the AlphaScreen assays (site not stated))
T1 construct: also called rhβ-klotho; huβKlotho-His
T1 sequence: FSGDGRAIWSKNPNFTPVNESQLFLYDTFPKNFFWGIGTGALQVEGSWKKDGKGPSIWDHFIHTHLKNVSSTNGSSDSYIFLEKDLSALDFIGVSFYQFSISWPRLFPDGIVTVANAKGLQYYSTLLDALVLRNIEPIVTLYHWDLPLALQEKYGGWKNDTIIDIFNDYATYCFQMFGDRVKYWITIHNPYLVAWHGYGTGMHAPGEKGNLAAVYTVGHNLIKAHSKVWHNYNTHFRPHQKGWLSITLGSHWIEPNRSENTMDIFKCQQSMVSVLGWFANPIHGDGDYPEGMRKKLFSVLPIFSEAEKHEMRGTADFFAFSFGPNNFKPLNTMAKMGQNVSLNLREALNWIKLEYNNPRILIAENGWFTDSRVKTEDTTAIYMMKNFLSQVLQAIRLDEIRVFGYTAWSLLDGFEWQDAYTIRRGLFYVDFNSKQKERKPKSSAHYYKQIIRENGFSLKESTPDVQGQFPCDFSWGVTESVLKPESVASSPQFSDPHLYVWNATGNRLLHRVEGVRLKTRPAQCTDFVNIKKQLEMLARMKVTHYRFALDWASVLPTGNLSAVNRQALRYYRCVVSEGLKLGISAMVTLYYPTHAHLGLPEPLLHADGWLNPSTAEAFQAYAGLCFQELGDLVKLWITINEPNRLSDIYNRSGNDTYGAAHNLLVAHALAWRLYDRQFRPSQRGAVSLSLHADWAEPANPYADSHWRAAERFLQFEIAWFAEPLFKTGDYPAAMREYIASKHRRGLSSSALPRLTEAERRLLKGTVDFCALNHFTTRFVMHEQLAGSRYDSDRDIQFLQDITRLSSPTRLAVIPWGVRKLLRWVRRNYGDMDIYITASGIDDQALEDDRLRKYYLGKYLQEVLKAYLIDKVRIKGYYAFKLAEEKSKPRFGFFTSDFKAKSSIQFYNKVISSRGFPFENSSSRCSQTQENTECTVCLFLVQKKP

[2] = biological target: T1, recombinant human β-Klotho; remark: listed apart in the source
[3] = biological target: T1, recombinant human β-Klotho; remark: listed apart in the source
[4] = biological target: T1, recombinant human β-Klotho; remark: listed apart in the source
[5] = biological target: T1, recombinant human β-Klotho; remark: listed apart in the source
human FGFR1c-Fc = biological target: T2, human FGFR1c-Fc (human, UniProt P11362 22-376)
T2 construct: also called huFGFR1c-Fc; huFGFR1c/Fc
T2 sequence: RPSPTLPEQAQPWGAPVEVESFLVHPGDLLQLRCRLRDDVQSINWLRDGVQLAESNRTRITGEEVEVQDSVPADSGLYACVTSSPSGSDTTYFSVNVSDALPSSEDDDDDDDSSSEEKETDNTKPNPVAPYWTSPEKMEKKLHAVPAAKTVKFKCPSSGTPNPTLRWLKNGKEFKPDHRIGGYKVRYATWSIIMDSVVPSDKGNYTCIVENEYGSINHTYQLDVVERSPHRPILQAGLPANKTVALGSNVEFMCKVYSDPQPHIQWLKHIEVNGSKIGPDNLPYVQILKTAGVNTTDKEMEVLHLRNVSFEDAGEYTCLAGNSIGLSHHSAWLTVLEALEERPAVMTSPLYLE

[6] = biological target: T1, recombinant human β-Klotho; remark: listed apart in the source

B1: β-Klotho walked dimer BK_R1c_D15 (designed binder)
chain: CLPDEFQCGSGRCIPQTWVCDGLNDCGDGSDEPPAHCSAPASEPPGSLCRSNQFTCGNGNCIPQPWVCDGEDDCGDDSDEESCKEHT
- binding result [1]: binds

B2: β-Klotho walked dimer bKWD01 (designed binder)
chain: CLPDEFQCGSGRCIPQHWLCDGLNDCGDGSDEPPAHCSAPASEPPGSLCRAGEFRCSNGRCVPLTWLCDGEDDCQDNSDEKNCAQPT
- binding result [1]: binds

B3: β-Klotho walked dimer BK_R1c_D05 (designed binder)
chain: CAAGQFRCHNSDTCLPGAWVCDGDNDCGDNSDEASCQKRTCHSFNQFECRNGQCIPLHLVCDGVPDCGDNSDETDCGDSHILPFSTPGPST
- binding result [2]: binds

B4: β-Klotho walked dimer BK_R1c_D24 (designed binder)
chain: CRPDEFPCRSTGRCVPRRWVCDGVDDCGDNSDESLAHCQTPTCQPDEFTCSSGRCIPQPWLCDGLNDCGDGSDEPPAHCSAPASEPPGSL
- binding result [3]: binds

Further lines, results first:

- binding result [4]: binds
B5: β-Klotho walked dimer BK_R1c_D22 (designed binder)
chain: CQPDEFTCSSGRCIPQPWLCDGLNDCGDGSDEPPAHCSAPASEPPGSLCRPDEFRCKNGRCIPQTWVCDGEDDCQDSSDETDCESTVRT

- binding result [5]: binds
B6: β-Klotho walked dimer BK_R1c_D18 (designed binder)
chain: CPPDEFQCRGTKKCLPLAWVCDGDNDCEDDSDEESCASAVHTCQSNEFRCRSGRCIPQHWLCDGLNDCGDGSDESQQCSAPASEPPGSL

- binding result [1]: binds
B7: β-Klotho walked dimer BK_R1c_D14 (designed binder)
chain: CLPDEFQCGSGRCIPQTWVCDGLNDCGDGSDEPPAHCSAPASEPPGSLCRSDEFRCGNGRCIPLTWVCDGEDDCQDSSDETGCTTPGHT

- binding result (human FGFR1c-Fc): binds
Binder: CGAGLFTCRSTNICISQVWVCDGVDDCEDNSDEDSCSAPASEPPGSL (designed binder, also called M03mutM01) [FGFR1c-binding monomer M03mut01]

- binding result [6]: binds
B8: β-Klotho-binding monomer bKmutM28 (designed binder)
chain: CPWFHHFKCRNGQRIPLHLVCDGVPDCGDDSDETDCGDSHILPFSTPGPST
